According to the supplement of paper PMC10567573:
± gives the standard deviation.

Assay: protein stability index of a GFP-peptide fusion (GPS, HEK-293T) (PSI 1-6); higher = more stable
Conditions: c terminus: a fixed tail appended
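Also: 24-mer peptide tiles fused after GFP, lentivirally expressed, FACS-sorted into six equal bins by GFP/DsRed ratio, decoded by Illumina sequencing, PSI is the read-weighted mean bin number.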

Sequence | protein stability index (treatment: DMSO) | protein stability index (treatment: MLN4924 1 uM, 8 h)
DGIDRWIKEIDEHAPGVPKILVGN [RAB40B] | 3.68 ± 0.28 | 3.85 ± 0.33
NIIDIYKQESTRPEKKSDQPMCEE [TRIM55] | 5.05 ± 0.26 | 5.02 ± 0.052
VVGNWQYFFPVIFSKASDSLQLVF [MAGEA6] | 3.21 ± 0.34 | 3.32 ± 0.63
MEALKLQPGLSFLNLGSGTGYLST [PCMTD1] | 2.3 ± 0.2 | 2.31 ± 0.22
SLRDSGYFYDPIERDIEIGFLPWL [RSPH3] | 2.28 ± 0.49 | 2.37 ± 0.47
RGEVLPEEITEESLEESVGKPLYL [INTS3] | 5.17 ± 0.38 | 5.08 ± 0.35
KRQVPTEQAQAYAERLGVTFFEVS [RAB40B] | 2.99 ± 0.22 | 3.23 ± 0.23
VSDDLSSEEDGEARTQMILLRRSV [PHTF1] | 4.8 ± 0.17 | 5.08 ± 0.15
MELSWGQSPGQPVQGGSEAWGPGT [TEX19] | 3.86 ± 0.53 | 4.06 ± 0.36
YDSFDSEDYPAALPNHKPKGTFKD [ETS1] | 5.05 ± 0.17 | 4.83 ± 0.22
PGPASGPGPDTGPDSELSPCIPPG [SPAG8] | 5.4 ± 0.24 | 5.36 ± 0.24
GTLIGVGQSVTAVGRIIAPLLSGV [MFSD9] | 2.03 ± 0.17 | 2.2 ± 0.29
ERNRMHGLNDALDNLRKVVPCYSK [NEUROD6] | 2.75 ± 0.47 | 3.02 ± 0.32
VPRTLSPHQYHSVHGVGMVPEWSD [TBX5] | 3.62 ± 0.25 | 3.77 ± 0.16
DDEGWLHSGDLGQLDGLGFLYVTG [ACSBG2] | 2.66 ± 0.33 | 2.54 ± 0.42
NIYCLNCEVPTCSLCKVFGAHKDC [TRIM55] | 3.11 ± 0.35 | 3.21 ± 0.48
QKVDQFDPFTVPTISFICRELDAI [PRIM1] | 2.2 ± 0.24 | 2.31 ± 0.33
NRYGDVPCLDQTRVKLTKRSGHTQ [PTPN9] | 3.96 ± 0.4 | 4.36 ± 0.26
LPPCLLPLSPPTAPDRATAVATAS [TRIB3] | 4.45 ± 0.31 | 4.35 ± 0.26
DGVITASEDRTIRVWLKRDSGQYW [WDFY1] | 2.65 ± 0.65 | 2.76 ± 0.18
CQEQIEALLESSLRQAQQNMDPKA [CCND1] | 4.85 ± 0.079 | 4.63 ± 0.19
DHKPKLCRLAKGENGYGFHLNAIR [PDZK1] | 2.25 ± 0.24 | 2.36 ± 0.56
REESQHEIKDVLVWTNDQVVHWVQ [PPFIA4] | 3.4 ± 0.37 | 3.97 ± 0.45

Sequence | protein stability index (treatment: DMSO) | protein stability index (treatment: MLN4924 1 uM, 8 h)
DKDRRFVFSYFLATDMISIFEPPV [EFHC1] | 2.38 ± 0.47 | 2.72 ± 0.61
ERVVINISGLRFETQLKTLAQFPN [KCNA1] | 2.47 ± 0.29 | 2.32 ± 0.55
YPSLQAMGWFNNEVGSMKIQSGAW [CRYBA1] | 1.99 ± 0.41 | 2.45 ± 0.17
HSMHKYQPRIHLVRAAQLCSQHWG [TBX6] | 2.14 ± 0.2 | 2.22 ± 0.3
TLLKKISEASKAFQMEKIEHGYEN [TRIM55] | 2.3 ± 0.26 | 2.4 ± 0.15
GLEGLEDAPPVELQLLHECSPSQM [FANCE] | 4.77 ± 0.19 | 4.66 ± 0.12
IKMAMVACGDAFTVAIGAESEVYS [NEK8] | 2.57 ± 0.78 | 2.57 ± 0.5
SLVKELLRMCSHGEGKINYYNFVR [EFHC1] | 2.31 ± 0.32 | 2.46 ± 0.8
TQHWPIRLDGQQEPQPFVTSDVYS [MYORG] | 3.56 ± 0.27 | 3.46 ± 0.22
YMTKPSKSLLPHLKTGNSSPGIGA [RTP4] | 3.13 ± 0.13 | 3.22 ± 0.27
GESYESCCPTSREAAVEALELLGA [FEM1A] | 4.58 ± 0.12 | 4.66 ± 0.2
TLKCLSHHVADAYTSSQKVSPIQI [TOR1AIP2] | 2.53 ± 0.096 | 2.6 ± 0.37
GHLCAAEVVKIRDSFSNQNTETKD [DLC1] | 4.18 ± 0.063 | 4.14 ± 0.22
QTFLDERTPRLMPDKESMYYPRVQ [GDAP1] | 3.43 ± 0.32 | 3.41 ± 0.31
NVHATTATGDTALTYACENGHTDV [ANKRD17] | 4.82 ± 0.33 | 4.88 ± 0.19
EMRISESAASGARFPLDSAQDPDV [PCDHGC5] | 5.38 ± 0.21 | 5.35 ± 0.16
RASQREYEELRNSERAEVQRLEEQ [RSPH3] | 5.43 ± 0.27 | 5.3 ± 0.2
LACRLTPDMETKLLFMTSRVRFGQ [INTS3] | 2.2 ± 0.16 | 2.23 ± 0.22
ILDICEDNVPDPKDVKERFSGSLV [TMEM175] | 3.83 ± 0.19 | 4.06 ± 0.13
LVWIRGPGFGCKAVRCASGRCTVR [SDE2] | 2.37 ± 0.87 | 2.36 ± 0.42
NTFVRYLLKRIKKCCGMRNTDVSM [KCNK9] | 3.38 ± 0.59 | 3 ± 0.35
NRERVVSLIEDLQRELEIPEQQVD [ZNF449] | 5.13 ± 0.23 | 5.17 ± 0.16
AMDNHSDSEEELAAFCPQLDDSTV [RETREG3] | 5.34 ± 0.23 | 5.4 ± 0.14

Sequence | protein stability index (treatment: DMSO) | protein stability index (treatment: MLN4924 1 uM, 8 h)
FIYSLKQMLLNVEANSAKVQEDLE [FSD1] | 2.55 ± 0.16 | 2.38 ± 0.28
PLGSPSPRPRRAKRFASLSRFVET [ADAMTS4] | 3.5 ± 0.28 | 3.41 ± 0.21
QFPYVEFTGRDSITCLTCQGTGYI [TMEM106C] | 2.93 ± 0.47 | 3.09 ± 0.52
EDTHQSPEPEDEPGGPGAMTESLE [RSPH3] | 5.43 ± 0.38 | 5.64 ± 0.14
DCCQVSAPNRFFQKLNVFKNFIGL [NLN] | 2.09 ± 0.51 | 2.17 ± 0.21
SEAKLYGRCELARVLHDFGLDGYR [SPACA3] | 2.23 ± 0.15 | 2.42 ± 0.13
LHLKRQPKRRWLFWNSPSSPSSSA [RHOBTB2] | 2.27 ± 0.25 | 2.53 ± 0.21
GQGAMFRLPTDSHFPYDLHLRSQS [NEUROD6] | 3.02 ± 0.3 | 3.11 ± 0.22
VCINLPPPLTRQIAVKTLGIGKNV [GFOD1] | 2.23 ± 0.27 | 2.05 ± 0.19
QLRCEMEQQNQEYKILLDVKTRLE [KRT17] | 3.63 ± 0.28 | 3.83 ± 0.098
QGQAAAPASGSGADSEPARHIFSF [TRIM55] | 3.76 ± 0.27 | 3.79 ± 0.3
ASVSDEELKRRVAEELALEQAKKE [CHCHD3] | 5.76 ± 0.25 | 5.45 ± 0.49
LREIVHKPGPITLTVAKCWDPSPR [DVL3] | 2.8 ± 0.28 | 2.93 ± 0.32
PPSARHRAHPPQRPASSGGAHTLV [KCNA3] | 4.06 ± 0.42 | 4.1 ± 0.45
AGNSTSGSRAGASSFSDPFFVVET [KCNA3] | 3.75 ± 0.15 | 3.58 ± 0.27
EEEMRSHYVAQTGILWLLMNNCFL [GAGE1] | 3.15 ± 0.36 | 3.2 ± 0.35
SNPGVDFGDVSERLALRQRLKCRS [GALNT9] | 4.43 ± 0.1 | 4.56 ± 0.17
HWRECLFYPALWPQLRICLRVSPA [FBXO33] | 2.42 ± 1.1 | 2.61 ± 0.78
PTGRLPALVRWWNGIGAVLDFTHP [MYORG] | 2.15 ± 0.28 | 2.14 ± 0.033
TLRDHFKGISSHSRSSLMPLRNDV [SLC2A12] | 2.96 ± 0.15 | 3.03 ± 0.37
PDFPSINMDPAGLDDEDDTSIGMP [RETREG3] | 5.49 ± 0.18 | 5.53 ± 0.11
ETNEEDKTLQEIYRKYRKLIESEL [FBXO39] | 3.02 ± 0.44 | 3.4 ± 0.34
TAPLYKDEKEQLIIPQVPLFNILA [USP39] | 2.15 ± 0.13 | 2.09 ± 0.39

Sequence | protein stability index (treatment: DMSO) | protein stability index (treatment: MLN4924 1 uM, 8 h)
TKILVVNAAYFVGKWMKKFPESET [SERPINB5] | 2.56 ± 0.6 | 2.53 ± 0.47
AVIAQQRRKPDPPKDENERSTCNV [DLC1] | 5.24 ± 0.21 | 5.12 ± 0.19
SDINSIRRILDELTLCKSDLESQV [KRT34] | 3.34 ± 0.2 | 3.1 ± 0.37
KLKLTNNHLDPFGHIILNSMHKYQ [TBX5] | 2.26 ± 0.37 | 2.34 ± 0.25
TIIPILQHLKYKEHPEALSCLLLQ [INTS3] | 2.35 ± 0.15 | 2.25 ± 0.14
SPVLLGWVEQAYADKCVCGPSAPP [TIAF1] | 2.67 ± 0.057 | 2.86 ± 0.28
PLFEDVQMLRKTVKDEAHQAQKDP [PPP2R5C] | 5.37 ± 0.22 | 5.3 ± 0.17
IIKQIPVEQMTKEERQAAQNECQV [NEK8] | 4.93 ± 0.19 | 4.75 ± 0.24
LSIRCQHQEQVEDLTASHDAALLE [MTUS2] | 4.66 ± 0.22 | 4.86 ± 0.19
FVYENAKEGARNIRTSERVTLIVD [BTBD10] | 2.55 ± 0.6 | 3.06 ± 0.5
ASRTWCFYNTEDIKDWEDRFYLLL [PTGFR] | 2.15 ± 0.6 | 2.46 ± 0.38
EVEGVKNIMTQNVERILARGENLE [VAMP8] | 4.68 ± 0.15 | 4.46 ± 0.16
DSFDKFDFCEPSFVTGNCLEISPD [PCMTD2] | 4.36 ± 0.12 | 4.66 ± 0.46
PPPSRPSVAVPPPPPNRMYPPPPP [WASL] | 4.48 ± 0.2 | 4.49 ± 0.2
QQKQQIMAALNSQTAVQFQQYAAQ [ACBD3] | 3.21 ± 0.17 | 3.27 ± 0.16
ELIDNLKEAQYIRTELVEQAFRAI [PCMTD2] | 2.54 ± 0.32 | 2.29 ± 0.44
SAFSSRGSLSLSFEREPSTSDLGT [RIPK4] | 4.01 ± 0.14 | 4.13 ± 0.14
LQLKETLATQEPTDNQVRLRKRKE [DLC1] | 5.18 ± 0.3 | 5.32 ± 0.24
NKLTTLPSDFCGLTHLVKLDLSKN [LRRC59] | 2.37 ± 0.12 | 2.31 ± 0.14
VNVSDRGGRTALHHAALNGHVEMV [ANKRD44] | 3.39 ± 0.43 | 3.24 ± 0.093
